The target of assay [1] is GFP-diS1 (sfGFP H148C) (Aequorea victoria) [GFP: P42212]. Kind of assay: fluorescence emission ratio (CRO–O^− : CRO–OH excitation); dimerisation kinetics with 1 mM CuSO4, 50 mM Tris–HCl pH 8, plate reader, excitation 388 nm and 483 nm, emission 516 nm; second order A + A → A2; apparent KD, estimated, non-equilibrium (covalent disulphide dimer); monomer to dimer.
Assay [2] has the same target. The assay can be described thus: fluorescence emission ratio (CRO–O^− : CRO–OH excitation); percentage of dimer after incubation with CuSO4 (1 mM; CuCl2 gave no discernible change for GFP-diS2), 50 mM Tris–HCl pH 8; monomer to disulphide-linked dimer.
In assay [3] the target is GFP-diS2 (sfGFP H148C V206F) (Aequorea victoria) [GFP: P42212]. The assay can be described thus: fluorescence emission ratio (CRO–O^− : CRO–OH excitation); dimerisation kinetics with 1 mM CuSO4, 50 mM Tris–HCl pH 8, plate reader, excitation 388 nm and 483 nm, emission 516 nm; second order A + A → A2; apparent KD, estimated, non-equilibrium (covalent disulphide dimer); monomer to dimer.

For assay [4] the target is unchanged. The assay can be described thus: fluorescence emission ratio (CRO–O^− : CRO–OH excitation); percentage of dimer after incubation with CuSO4 (1 mM; CuCl2 gave no discernible change for GFP-diS2), 50 mM Tris–HCl pH 8; monomer to disulphide-linked dimer.

With “GFP-diS1 (sfGFP H148C) (from UniProt P42212 1-238)”, the Kd in assay [1] is > 25 µM. The percent dimer after 1 h with CuSO4 in assay [2] was found to be 55%.
Regarding “GFP-diS2 (sfGFP H148C V206F) (from UniProt P42212 1-238)”, the Kd in assay [3] was 4.6 µM. In addition, the percent dimer with CuSO4 in assay [4] was 80%.

The values are drawn from paper PMC12547689.
